T1: APBA1_2, Q02410
T1 sequence (Q02410 742-832, limits assumed, looked up): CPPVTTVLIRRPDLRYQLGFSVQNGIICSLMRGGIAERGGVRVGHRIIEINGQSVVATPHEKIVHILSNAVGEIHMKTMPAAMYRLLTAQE

T2: MPP6, Q9NZW5
T2 sequence (Q9NZW5 125-219, limits assumed, looked up): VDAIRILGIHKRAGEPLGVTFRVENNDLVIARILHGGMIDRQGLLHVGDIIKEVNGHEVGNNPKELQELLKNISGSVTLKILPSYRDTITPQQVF

T3: MPP2, Q14168
T3 sequence (Q14168 180-250, limits assumed, looked up): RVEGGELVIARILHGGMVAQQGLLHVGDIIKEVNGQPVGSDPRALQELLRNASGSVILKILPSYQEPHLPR

T4: SNTA1, Q13424
T4 sequence (Q13424 82-180, limits assumed, looked up): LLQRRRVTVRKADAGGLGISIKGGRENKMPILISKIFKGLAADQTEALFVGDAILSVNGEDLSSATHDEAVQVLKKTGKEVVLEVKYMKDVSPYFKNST

T5: GRIP1_4, Q9Y3R0
T5 sequence (Q9Y3R0 467-571, limits assumed, looked up): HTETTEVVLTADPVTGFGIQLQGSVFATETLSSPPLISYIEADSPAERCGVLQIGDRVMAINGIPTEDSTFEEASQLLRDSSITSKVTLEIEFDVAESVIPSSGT

T6: APBA2_2, Q99767
T6 sequence (Q99767 654-744, limits assumed, looked up): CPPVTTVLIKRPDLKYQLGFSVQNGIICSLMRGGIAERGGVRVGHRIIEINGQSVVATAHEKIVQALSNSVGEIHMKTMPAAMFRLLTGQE

T7: ARHGAP21, Q5T5U3
T7 sequence (Q5T5U3 45-169, limits assumed, looked up): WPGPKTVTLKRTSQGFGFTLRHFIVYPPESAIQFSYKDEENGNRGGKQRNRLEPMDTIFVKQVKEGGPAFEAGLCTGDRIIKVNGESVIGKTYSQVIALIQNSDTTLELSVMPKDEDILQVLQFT

T8: NHERF3_3, Q5T2W1
T8 sequence (Q5T2W1 238-333, limits assumed, looked up): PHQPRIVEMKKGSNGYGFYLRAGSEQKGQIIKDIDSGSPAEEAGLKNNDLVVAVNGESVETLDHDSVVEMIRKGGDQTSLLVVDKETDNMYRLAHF

T9: PCLO, Q9Y6V0
T9 sequence (Q9Y6V0 4491-4600, limits assumed, looked up): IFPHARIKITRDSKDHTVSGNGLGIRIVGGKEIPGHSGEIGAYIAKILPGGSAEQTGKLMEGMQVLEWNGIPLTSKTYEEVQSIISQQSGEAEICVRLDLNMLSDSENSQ


Key:
Assay in all cases: holdup assay
Set-up in all cases: key: below the threshold = too weak to quantify, mostly under pKd 3.1 to 4
Conditions in all cases: plain residues with an end cap or a label only (N-terminal biotin on a linker: ado-ado)
[1] = target: T1, APBA1_2, Q02410
[2] = target: GRID2IP_1, A4D2P6
[3] = target: DLG1_1, Q12959
[4] = target: T2, MPP6, Q9NZW5
[5] = target: NHERF2_2, Q15599
[6] = target: T3, MPP2, Q14168
[7] = target: PDLIM1, O00151
[8] = target: MAGI2_4, Q86UL8
[9] = target: GORASP2, Q9H8Y8
[10] = target: T4, SNTA1, Q13424
[11] = target: DLG2_2, Q15700
[12] = target: MAGI2_6, Q86UL8
[13] = target: MAGI3_2, Q5TCQ9
[14] = target: GRIP2_3, Q9C0E4
[15] = target: T5, GRIP1_4, Q9Y3R0
[16] = target: FRMPD4, Q14CM0
[17] = target: LIMK2, P53671
[18] = target: TJP2_1, Q9UDY2
[19] = target: Inadl_2, Q8NI35
[20] = target: IL16_4, Q14005
[21] = target: T6, APBA2_2, Q99767
[22] = target: T7, ARHGAP21, Q5T5U3
[23] = target: DLG4_1, P78352
[24] = target: FRMPD2_1, Q68DX3
[25] = target: CASK, O14936
[26] = target: T8, NHERF3_3, Q5T2W1
[27] = target: T9, PCLO, Q9Y6V0
[28] = target: ARHGEF12, Q9NZN5-2
Sequence of ARHGEF12, Q9NZN5-2 (Q9NZN5 other isoform, or with tags, fused parts or gaps): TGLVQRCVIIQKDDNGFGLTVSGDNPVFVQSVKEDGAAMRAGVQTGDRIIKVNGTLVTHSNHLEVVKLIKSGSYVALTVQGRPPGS

Sequence of CASK, O14936 (O14936 487-570): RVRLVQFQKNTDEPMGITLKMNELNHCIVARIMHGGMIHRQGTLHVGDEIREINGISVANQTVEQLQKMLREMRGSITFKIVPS
Sequence of GRID2IP_1, A4D2P6 (A4D2P6 1-87): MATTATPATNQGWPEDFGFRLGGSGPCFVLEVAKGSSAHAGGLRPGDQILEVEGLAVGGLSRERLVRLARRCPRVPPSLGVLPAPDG
Sequence of Inadl_2, Q8NI35 (Q8NI35 238-335): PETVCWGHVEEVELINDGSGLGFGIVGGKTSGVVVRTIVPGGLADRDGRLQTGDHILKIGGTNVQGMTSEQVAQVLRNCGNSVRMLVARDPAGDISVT
Sequence of DLG4_1, P78352 (P78352 62-152): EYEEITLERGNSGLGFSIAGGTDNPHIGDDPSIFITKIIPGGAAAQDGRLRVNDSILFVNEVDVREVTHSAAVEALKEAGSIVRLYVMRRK
Sequence of LIMK2, P53671 (P53671 143-248): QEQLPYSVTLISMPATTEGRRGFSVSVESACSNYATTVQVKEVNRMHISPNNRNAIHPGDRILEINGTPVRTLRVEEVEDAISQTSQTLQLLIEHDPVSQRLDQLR
Sequence of MAGI3_2, Q5TCQ9 (Q5TCQ9 398-503): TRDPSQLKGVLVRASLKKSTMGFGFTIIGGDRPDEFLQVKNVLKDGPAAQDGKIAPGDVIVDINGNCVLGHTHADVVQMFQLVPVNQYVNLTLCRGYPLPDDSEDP
Sequence of TJP2_1, Q9UDY2 (Q9UDY2 24-128): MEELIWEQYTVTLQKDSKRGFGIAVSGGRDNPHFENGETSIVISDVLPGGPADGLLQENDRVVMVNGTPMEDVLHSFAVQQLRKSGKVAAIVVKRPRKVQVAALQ
Sequence of MAGI2_4, Q86UL8 (Q86UL8 772-865): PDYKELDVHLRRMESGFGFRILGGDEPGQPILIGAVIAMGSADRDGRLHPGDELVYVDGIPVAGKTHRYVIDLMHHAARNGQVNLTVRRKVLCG
Sequence of FRMPD2_1, Q68DX3 (Q68DX3 770-861): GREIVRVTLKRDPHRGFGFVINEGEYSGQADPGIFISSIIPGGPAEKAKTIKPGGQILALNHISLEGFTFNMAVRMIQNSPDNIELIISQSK
Sequence of MAGI2_6, Q86UL8 (Q86UL8 1141-1229): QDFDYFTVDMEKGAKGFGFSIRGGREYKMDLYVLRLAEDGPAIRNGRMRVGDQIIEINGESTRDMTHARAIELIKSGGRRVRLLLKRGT
Sequence of FRMPD4, Q14CM0 (Q14CM0 67-160): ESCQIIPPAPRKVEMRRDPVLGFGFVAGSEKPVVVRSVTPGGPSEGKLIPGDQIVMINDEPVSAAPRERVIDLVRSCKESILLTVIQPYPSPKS
Sequence of IL16_4, Q14005 (Q14005 1229-1329): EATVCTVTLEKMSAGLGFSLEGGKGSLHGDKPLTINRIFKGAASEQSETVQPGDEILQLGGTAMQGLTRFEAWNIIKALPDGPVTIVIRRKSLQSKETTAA
Sequence of GRIP2_3, Q9C0E4 (Q9C0E4 238-339): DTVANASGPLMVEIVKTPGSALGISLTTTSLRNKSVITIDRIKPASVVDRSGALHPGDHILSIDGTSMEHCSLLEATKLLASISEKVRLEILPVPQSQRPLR
Sequence of PDLIM1, O00151 (O00151 1-87): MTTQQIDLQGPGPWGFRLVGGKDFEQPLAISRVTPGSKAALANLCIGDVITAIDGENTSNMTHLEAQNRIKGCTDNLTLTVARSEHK
Sequence of DLG2_2, Q15700 (Q15700 189-283): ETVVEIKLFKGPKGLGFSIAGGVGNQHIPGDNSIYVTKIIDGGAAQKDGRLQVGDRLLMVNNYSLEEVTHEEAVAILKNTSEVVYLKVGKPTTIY
Sequence of NHERF2_2, Q15599 (Q15599 142-238): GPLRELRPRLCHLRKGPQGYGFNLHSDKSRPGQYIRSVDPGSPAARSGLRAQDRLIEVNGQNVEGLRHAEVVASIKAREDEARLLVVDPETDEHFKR

Row | pKd [1] | pKd [2] | pKd [3] | pKd [4] | pKd [5] | pKd [6] | pKd [7] | pKd [8] | pKd [9] | pKd [10] | pKd [11] | pKd [12] | pKd [13] | pKd [14] | pKd [15] | pKd [16] | pKd [17] | pKd [18] | pKd [19] | pKd [20] | also measured | Binder
1 | 3.81 | below the threshold | below the threshold | below the threshold | below the threshold | below the threshold | below the threshold | below the threshold | 3.56 | 3.67 | below the threshold | below the threshold | 4.44 | below the threshold | below the threshold | below the threshold | below the threshold | below the threshold | below the threshold | below the threshold | pKd [21]: below the threshold; pKd [22]: 3.94; pKd [23]: 3.69; pKd [24]: below the threshold; pKd [25]: below the threshold; pKd [26]: below the threshold; pKd [27]: below the threshold; pKd [28]: 4.09 | YPKQMPLSQV [FZD8, Q9H461]
2 | 3.75 | below the threshold | below the threshold | below the threshold | 4.34 | below the threshold | below the threshold | below the threshold | below the threshold | below the threshold | below the threshold | below the threshold | below the threshold | below the threshold | below the threshold | 3.77 | below the threshold | below the threshold | below the threshold | 3.59 | pKd [21]: below the threshold; pKd [22]: 3.91; pKd [23]: below the threshold; pKd [24]: below the threshold; pKd [25]: below the threshold; pKd [26]: below the threshold; pKd [27]: below the threshold; pKd [28]: below the threshold | LGHTPFVDEL [UQCRC2, P22695]
3 | 4.36 | below the threshold | 3.96 | below the threshold | below the threshold | below the threshold | 4.14 | 4.32 | 4.39 | 4.13 | 4.03 | 5.4 | below the threshold | below the threshold | below the threshold | 3.53 | below the threshold | 4.25 | below the threshold | below the threshold | pKd [21]: below the threshold; pKd [22]: 3.56; pKd [23]: 4.26; pKd [24]: below the threshold; pKd [25]: 3.74; pKd [26]: below the threshold; pKd [27]: below the threshold; pKd [28]: 3.54 | QYPGSPDSWV [PKP4, Q99569]
4 | below the threshold | below the threshold | below the threshold | 3.62 | below the threshold | 3.67 | below the threshold | below the threshold | 5.21 | below the threshold | below the threshold | below the threshold | below the threshold | below the threshold | below the threshold | below the threshold | below the threshold | below the threshold | below the threshold | below the threshold | pKd [21]: below the threshold; pKd [22]: below the threshold; pKd [23]: below the threshold; pKd [24]: below the threshold; pKd [25]: below the threshold; pKd [26]: below the threshold; pKd [27]: below the threshold; pKd [28]: below the threshold | DFRHKSSFVI [JAM3, Q9BX67]
